Biological target: FITC-Skp2^77−86 peptide (human) (UniProt Q13309)
Assay: fluorescence polarisation

Sequence of FITC-Skp2^77−86 peptide (human) (Q13309 whole entry, looked up, tested part not stated): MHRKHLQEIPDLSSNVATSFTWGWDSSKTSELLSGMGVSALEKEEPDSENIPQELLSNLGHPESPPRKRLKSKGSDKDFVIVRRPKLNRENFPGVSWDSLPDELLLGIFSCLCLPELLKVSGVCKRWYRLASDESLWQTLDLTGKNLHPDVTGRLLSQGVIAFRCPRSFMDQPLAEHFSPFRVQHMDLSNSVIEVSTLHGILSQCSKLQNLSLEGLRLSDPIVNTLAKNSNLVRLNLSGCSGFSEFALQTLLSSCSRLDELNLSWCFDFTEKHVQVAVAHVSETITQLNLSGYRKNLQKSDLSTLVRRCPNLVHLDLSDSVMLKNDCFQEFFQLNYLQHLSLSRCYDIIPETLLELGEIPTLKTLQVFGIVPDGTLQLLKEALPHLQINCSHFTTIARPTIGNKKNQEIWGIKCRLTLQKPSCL

CDK2-cyclin A M210A/I213A (from UniProt P24941 1-298; P20248 173-432) (complex)
fold reduction of binding affinity against wild type: 5 fold

Reference: publication PMC8419023
